± gives the standard deviation of the averaged measurements.
B1: library; numbered along this chain (parent)
chain: MNIQIGELAKRTACPVVTIRFYEQEGLLPPPGRSRGNFRLYGEEHVERLQFIRHCRSLDMPLSDVRTLLSYRKRPDQDCGEVNMLLDEHIRQVESRIGALLELKHHLVELREACSGARPAQSCGILQGLSDCVCDTRGTTAHPSD

Columns and labels:
[1] = variants of: B1; experiment: sfGFP reporter fluorescence (15 h) (µM FITC); higher = higher leak; details: library round: Round 0; ligand: none
In short: (§1)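 With 1 µM lead chloride, 30 µM zinc acetate or no metal present, 1 μL Echo-assembled reactions were incubated 15 hr at 30 °C. They contained BL21 Star (DE3) PANOx-SP extract, 30 μg/mL GamS, the pPbrR-sfGFP reporter plasmid and PCR-made linear PbrR templates Echo-normalized to 5 nM. Endpoint sfGFP fluorescence was read on a Synergy Neo2 at 485/528 nm against FITC standards in 50 mM sodium borate pH 8.5. Results are expressed as µM FITC.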

[2] = variants of: B1; experiment: sfGFP reporter fluorescence (15 h) (µM FITC); higher = stronger transcriptional activation; details: library round: Round 0
In short: as §1

| Variant | sfGFP reporter fluorescence [1] | sfGFP reporter fluorescence ([2]; ligand: 1 µM Pb) | sfGFP reporter fluorescence ([2]; ligand: 30 µM Zn) |
| --- | --- | --- | --- |
| P30N | 0.0605 ± 0.0031 | 0.0753 ± 0.0049 | 0.628 ± 0.07 |
| P30K | 0.0632 ± 0.0029 | 0.0845 ± 0.0013 | 1.03 ± 0.023 |
| P30W | 0.0634 ± 0.0015 | 0.0722 ± 0.0031 | 0.33 ± 0.015 |
| E7L | 0.06175 ± 0.00026 | 0.0837 ± 0.0013 | 0.846 ± 0.052 |
| L129Q | 0.0588 ± 0.0018 | 0.0574 ± 0.0013 | 0.05406 ± 0.00026 |
| P143T | 0.05772 ± 0.00026 | 0.0713 ± 0.0065 | 0.821 ± 0.11 |
| M60L D64K K104V | 2.02 ± 0.17 | 4.2 ± 0.4 | 4.63 ± 0.11 |
| R39D | 0.0603 ± 0.0018 | 0.0608 ± 0.0026 | 0.0597 ± 0.0036 |
| R39P | 0.0581 ± 0.00078 | 0.0597 ± 0.001 | 0.0581 ± 0.0029 |
| R39S | 0.0607 ± 0.00078 | 0.0603 ± 0.0013 | 0.0592 ± 0.0023 |
| H106A | 0.0596 ± 0.0034 | 0.0667 ± 0.00052 | 0.213 ± 0.02 |
| L27N | 0.06322 ± 0.00026 | 0.0616 ± 0.0031 | 0.0601 |
| L27M | 0.0643 ± 0.0018 | 0.0971 ± 0.0036 | 0.743 ± 0.04 |
| I97D | 0.0596 ± 0.0044 | 0.0575 ± 0.001 | 0.193 ± 0.0054 |
| I97A | 0.0663 ± 0.0021 | 0.133 ± 0.0015 | 1.138 ± 0.007 |
| I97G | 0.0555 ± 0.0013 | 0.0603 ± 0.0013 | 0.404 ± 0.014 |
| E23A | 0.0608 ± 0.0015 | 0.05827 ± 0.00052 | 0.104 ± 0.0026 |
| D135I | 0.0614 ± 0.0018 | 0.0927 ± 0.0031 | 1.72 ± 0.18 |
| E47A | 0.0612 | 0.0779 ± 0.0049 | 0.791 ± 0.039 |
| V108F | 0.0561 ± 0.001 | 0.0685 ± 0.001 | 0.436 ± 0.028 |
| G128M | 0.105 ± 0.0062 | 0.311 ± 0.025 | 3.04 ± 0.38 |
| G128W | 0.07165 ± 0.00026 | 0.248 ± 0.028 | 1.39 ± 0.098 |
| G128Q | 0.06982 ± 0.00026 | 0.117 ± 0.0026 | 2.05 ± 0.43 |

| Variant | sfGFP reporter fluorescence [1] | sfGFP reporter fluorescence ([2]; ligand: 1 µM Pb) | sfGFP reporter fluorescence ([2]; ligand: 30 µM Zn) |
| --- | --- | --- | --- |
| L85W | 0.0618 ± 0.0018 | 0.0597 ± 0.0036 | 0.157 ± 0.013 |
| N83D | 0.0614 ± 0.0013 | 0.0607 ± 0.0013 | 1.003 ± 0.0065 |
| Y41H | 0.0599 ± 0.0029 | 0.0618 ± 0.0023 | 0.0678 ± 0.0026 |
| R111G | 0.0535 | 0.0623 ± 0.001 | 0.343 ± 0.0083 |
| R111I | 0.0544 ± 0.00078 | 0.0662 ± 0.0013 | 0.288 ± 0.0036 |
| V46R | 0.0594 ± 0.001 | 0.08704 ± 0.00026 | 0.75 ± 0.054 |
| D131Y | 0.05919 ± 0.00026 | 0.0815 ± 0.0029 | 0.806 ± 0.01 |
| D131V | 0.0641 ± 0.001 | 0.0905 ± 0.0078 | 0.984 ± 0.15 |
| C55P | 0.0596 ± 0.00078 | 0.0597 | 0.05846 ± 0.00026 |
| D64K K104V G128I | 0.711 ± 0.092 | 1.75 ± 0.096 | 4.36 ± 0.25 |
| L58Y | 0.0784 ± 0.0062 | 0.229 ± 0.011 | 0.606 ± 0.036 |
| L58W | 0.0629 ± 0.0034 | 0.0685 ± 0.0026 | 0.076 ± 0.0023 |
| M60L P61N K104V G128I | 0.148 ± 0.0083 | 0.448 ± 0.098 | 1.76 ± 0.23 |
| G36C | 0.0618 ± 0.0018 | 0.0865 ± 0.0015 | 0.8609 ± 0.0015 |
| G36H | 0.0627 ± 0.0015 | 0.0793 ± 0.0018 | 0.772 ± 0.059 |
| G36S | 0.0706 ± 0.00078 | 0.119 ± 0.021 | 2.69 ± 0.06 |
| L62V | 0.0621 ± 0.0018 | 0.08008 ± 0.00078 | 0.396 ± 0.0088 |
| L62Y | 0.0599 ± 0.0023 | 0.0623 ± 0.00052 | 0.0748 ± 0.0057 |
| L62I | 0.05992 ± 0.00026 | 0.0883 ± 0.0062 | 0.88 ± 0.14 |
| L62T | 0.0607 ± 0.0034 | 0.0674 ± 0.0031 | 0.133 ± 0.0031 |
| H89N | 0.0597 ± 0.001 | 0.0663 | 0.261 ± 0.015 |
| P75A | 0.0618 ± 0.0023 | 0.0711 ± 0.01 | 0.519 ± 0.049 |
| D64P | 0.0607 ± 0.00078 | 0.076 ± 0.00078 | 0.162 ± 0.0067 |

| Variant | sfGFP reporter fluorescence [1] | sfGFP reporter fluorescence ([2]; ligand: 1 µM Pb) | sfGFP reporter fluorescence ([2]; ligand: 30 µM Zn) |
| --- | --- | --- | --- |
| D64C | 0.0848 ± 0.032 | 0.335 ± 0.072 | 2.45 ± 0.3 |
| P61N D64K G128I | 0.452 ± 0.022 | 1.46 ± 0.23 | 3.51 ± 0.073 |
| K104V L107C G128I | 0.483 ± 0.024 | 2.5 ± 0.27 | 3.37 ± 0.23 |
| P15R | 0.06341 ± 0.00052 | 0.0876 ± 0.0021 | 1.04 ± 0.064 |
| P15C | 0.0656 ± 0.0052 | 0.0826 ± 0.0018 | 0.5684 ± 0.001 |
| P15N | 0.0629 ± 0.0034 | 0.0859 ± 0.0018 | 0.885 ± 0.022 |
| R48A | 0.0546 ± 0.0015 | 0.0541 ± 0.0023 | 0.3984 ± 0.0031 |
| K104R | 0.0621 ± 0.006 | 0.0958 ± 0.024 | 0.946 ± 0.16 |
| E94F | 0.0563 ± 0.0044 | 0.0579 ± 0.001 | 0.177 ± 0.006 |
| E94S | 0.0674 ± 0.0036 | 0.132 ± 0.0031 | 1.51 ± 0.013 |
| R72A | 0.06175 ± 0.00026 | 0.0687 ± 0.008 | 0.3731 ± 0.0026 |
| L110K | 0.05772 ± 0.00026 | 0.05864 ± 0.00052 | 0.0792 ± 0.0021 |
| L110E | 0.059 ± 0.001 | 0.0614 ± 0.0013 | 0.0579 ± 0.001 |
| S144A | 0.0586 ± 0.0036 | 0.0588 ± 0.0023 | 0.493 ± 0.16 |
| S57A | 0.059 ± 0.0015 | 0.0575 ± 0.001 | 0.184 ± 0.011 |
| E43I | 0.05186 ± 0.00026 | 0.0806 ± 0.0093 | 1.11 ± 0.078 |
| L68E | 0.0623 ± 0.00052 | 0.05974 ± 0.00052 | 0.0652 ± 0.0015 |
| L68M | 0.0902 ± 0.0021 | 0.2142 ± 0.0013 | 1.42 ± 0.044 |
| L68S | 0.061 ± 0.0023 | 0.05882 ± 0.00026 | 0.0636 ± 0.0039 |
| G6Y | 0.0603 ± 0.0034 | 0.0608 ± 0.001 | 0.066 |
| G6S | 0.0608 ± 0.0021 | 0.06853 ± 0.00052 | 0.412 ± 0.027 |
| L28F | 0.0603 ± 0.00078 | 0.0784 ± 0.0015 | 0.599 ± 0.018 |
| L28Y | 0.0621 ± 0.00078 | 0.0627 ± 0.0015 | 0.12 ± 0.0052 |

| Variant | sfGFP reporter fluorescence [1] | sfGFP reporter fluorescence ([2]; ligand: 1 µM Pb) | sfGFP reporter fluorescence ([2]; ligand: 30 µM Zn) |
| --- | --- | --- | --- |
| M60L P61N D64K G128M | 1.99 ± 0.056 | 3.91 ± 0.25 | 4.405 ± 0.006 |
| M60L P61N K104V | 0.153 ± 0.0062 | 0.413 ± 0.017 | 1.56 ± 0.039 |
| P61N D64K K104V G128M | 0.739 ± 0.021 | 1.592 ± 0.0036 | 3.375 ± 0.019 |
| L126A | 0.0685 ± 0.001 | 0.0682 ± 0.0026 | 0.0691 ± 0.0039 |
| L126T | 0.0596 ± 0.0018 | 0.0579 ± 0.0036 | 0.057 ± 0.0029 |
| I3N | 0.0599 ± 0.0013 | 0.0579 ± 0.0021 | 0.1142 ± 0.00026 |
| Y22F | 0.0629 ± 0.0029 | 0.0662 ± 0.00078 | 0.173 ± 0.0039 |
| Y22E | 0.06157 ± 0.00052 | 0.0621 ± 0.0013 | 0.06011 ± 0.00052 |
| E112F | 0.0575 ± 0.0026 | 0.0647 ± 0.0023 | 0.24 ± 0.012 |
| P61N L107C | 1.34 ± 0.084 | 2.4 ± 0.077 | 3.92 ± 0.019 |
| R20W | 0.0625 ± 0.0018 | 0.06157 ± 0.00052 | 0.063 ± 0.0015 |
| P61N D64K K104V L107C | 0.676 ± 0.011 | 2.12 ± 0.066 | 2.74 ± 0.35 |
| L8A | 0.0575 ± 0.0021 | 0.0667 ± 0.0042 | 0.313 ± 0.038 |
| P61N K104V L107C G128I | 0.289 ± 0.0057 | 1.306 ± 0.0026 | 2.66 ± 0.067 |
| F21W | 0.0702 ± 0.0013 | 0.124 ± 0.0031 | 0.945 ± 0.029 |
| C134R | 0.0731 ± 0.0023 | 0.0993 ± 0.0042 | 1.66 ± 0.018 |
| C134K | 0.0742 ± 0.00078 | 0.0891 ± 0.0021 | 1.71 ± 0.084 |
| V16M | 0.0647 ± 0.0029 | 0.099 ± 0.0052 | 0.9379 ± 0.0042 |
| E109P | 0.0662 ± 0.0023 | 0.155 ± 0.011 | 1.45 ± 0.11 |
| E109L | 0.0586 ± 0.001 | 0.0907 ± 0.0029 | 1.12 ± 0.12 |

Reference: the supplement of paper PMC12783771
